For one molecule, EC50 results are on record in patent US11912763 (dated 2024).

Assay [1] concerns the target T1, human CLDN18.2 (human, UniProt P56856). Briefly: ELISA, after 14 days at 37C. On the technique in general: An ELISA detects its analyte on a solid surface through an enzyme-linked reagent.
In assay [2] the target is T1, human CLDN18.2. Kind of assay: ELISA.
The target of assay [3] is T1, human CLDN18.2. Briefly: ELISA. This is another data set of the same source.

B1: LB321 CLDN18.2 arm (antibody)
chain 1: QVQLVQSGAEVKKPGSSVKVSCKASGYAFSNYLIEWVKQAPGQGLEWIGLINPGSGGTNYNEKFKGKATITADKSTSTAYMELSSLRSEDTAVYYCARVYYGNSFAYWGQGTLVTVSS
chain 2: DIVMTQSPDSLAVSLGERATISCKSSQSLLNSGNQKNYLTWYQQKPGQPPKLLIYWASTRESGVPDRFSGSGSGTDFTLTISSLQAEDVAVYYCQNDYFYPFTFGQGTKLEIK
One may read the EC50 as the concentration that produces a half-maximal response. Lower therefore signals a more potent agent. Regarding B1, the EC50 came out at 10.1 nM in assay [1], 0.99 nM in assay [2] and 0.366 nM in assay [3].
